From patent publication US6348586 come the findings set out here.

This experiment addresses human CCR5 transiently expressed on CCC/CD4 cells (human) (UniProt P51681). Kind of experiment: cell-based or functional assay. As to conditions: scale: fraction of the reverse-construct negative control.
Chain of UniProt P51681 (P51681 whole entry): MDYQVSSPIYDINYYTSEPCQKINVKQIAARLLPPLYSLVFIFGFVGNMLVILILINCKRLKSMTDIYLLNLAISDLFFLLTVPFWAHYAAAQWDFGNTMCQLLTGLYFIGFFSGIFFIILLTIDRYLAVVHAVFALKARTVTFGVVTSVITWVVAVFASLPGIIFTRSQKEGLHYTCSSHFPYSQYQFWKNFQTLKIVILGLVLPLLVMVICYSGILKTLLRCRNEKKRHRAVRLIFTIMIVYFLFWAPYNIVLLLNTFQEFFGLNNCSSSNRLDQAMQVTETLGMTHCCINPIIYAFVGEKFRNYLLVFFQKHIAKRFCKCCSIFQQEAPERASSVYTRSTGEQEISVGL

For “KSHV viral macrophage inflammatory protein I (vMIP-I) encoded by ORF K6 (ligand)”, the NSI HIV-1 foci generation (immunostaining for retroviral antigen) in CCC/CD4 cells cotransfected with CCR5 and vMIP-I was less than 0.5.
